Data: the supplement of paper PMC12764529
± gives the half width of the 95% confidence interval.

How the values were obtained:
[1] = folding stability dG unfold (combined trypsin and chymotrypsin); higher = more stable
How it was run: (§1)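 Bayesian fitting of sequencing counts gave K50 for each design. Unfolding free energy followed by setting this against a sequence-predicted unfolded-state K50 and a shared folded-state K50, either per protease or with trypsin and chymotrypsin combined. The designs, under 80 residues and lacking cysteine, were digested in a PA-tagged cDNA display format at 11 threefold-diluted protease concentrations and without protease, and only those with AlphaFold2 dimer inter-PAE above 15 were kept.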

[2] = folding stability dG unfold from chymotrypsin proteolysis; higher = more stable
How it was run: as §1

[3] = folding stability dG unfold from trypsin proteolysis; higher = more stable
How it was run: as §1

Sequence | folding stability dG unfold [1] [kcal/mol] | folding stability dG unfold [2] [kcal/mol] | folding stability dG unfold [3] [kcal/mol]
SAGGSAGGSAGGYIEIVFAHPDPEPGYKYAMVMEIQMDPPGNMEMNIRVIKDPEDAKEAFSAGGSAGGSAGG [r11_792_TrROS] | 1.41 ± 0.19 | 1.43 ± 0.067 | 1.35 ± 0.12
SAGGSAGGSAMTPQVIKVTLYKPATGDVRTVVVLDPVPNTSLDEVAAALPSDYVVAKVEVGSAGGSAGGSAG [r3_80_TrMRF] | -0.0325 ± 0.14 | -0.308 ± 0.33 | 0.166 ± 0.079
SAGGSSSSLIGEIKLPSNVTIKIERSSKGVRTAVVTFPETGKVVTLPLDPNVSIEEIIEKVKEIVEKKSAGG [r13_624_JUSTAS] | 1.71 ± 0.066 | 1.29 ± 0.043 | 2.06 ± 0.093
SAGGNKGKTIQINFMIDPEDPEMMIEKISKWLQAKGFKIESIEPRPVGNRWMYSATFRVPNGREITIWSAGG [r13_421_TrROS] | 1.77 ± 0.17 | 1.61 ± 0.19 | 1.76 ± 0.039
GSMTIPVVLPPGVRLPLSELWAIAKQYGGKLTATVYDPETGTSTSVTFPGGQLGDSTMAPGERTVNVTVVGS [r1_238_JUSTAS] | 0.759 ± 0.076 | 0.825 ± 0.09 | 0.527 ± 0.031
SAGGSAGGSMKIKVEVEMEKVKDPKKKGEYIYKMKIKKVEIELSEEEKEKLKELAEKLGIEVESAGGSAGGS [r12_249_TrROS_Hall] | 2.08 ± 0.17 | 2.35 ± 0.074 | 1.42 ± 0.066
SAGGSLTAEWDTSTGTVRLTFPDGSVVELPFPTSGAVVRATVDGDKVTIEVLDKDNPKVVARFTFDLGSAGG [r13_938_TrMRF] | 4.37 ± 0.19 | 4.74 ± 0.15 | 3.79 ± 0.2
SAGGSAGGSNNPDKKKKPRYVVIQIELKWYPNPNGQWSPELEITATVPAGDLEDKDDAIKDIISAGGSAGGS [r12_933_TrROS] | 1.68 ± 0.17 | 1.29 ± 0.064 | 2.13 ± 0.098
SADMVMFPMTGEFHFPGWRIKVEITLMFHFTPNGKFGPNFHPMIKIEIVPPPPPPKITEEEADKANENGSAG [r14_442_TrROS] | 3.59 ± 0.26 | 4.13 ± 0.19 | 3.03 ± 0.22
SAGGSAGGSAGGLVAKVYRDGKEAVFYFDSPEEMVESIRPLFPDGKEVKVEVTTPEELFSAGGSAGGSAGGS [r10_1167_TrMRF] | 0.0392 ± 0.24 | 0.22 ± 0.27 | -0.677 ± 0.16
SAGKKKIKIKLENGETKTLEIKPGETVEITFPNGLKATITKVKDGKIEIKVKEVYVKDKNGKWKKLKDLSAG [r5_417_TrROS_Hall] | 2.29 ± 0.29 | 2.6 ± 0.17 | 1.72 ± 0.066
SGVQLEWKYDPEDNKREIKISIFFPADDPEKKKQFAKVIAKEIENMFQEQGWKPKKIDIEVMRMPPGQPLSA [r9_117_TrROS] | 1.02 ± 0.067 | 1.2 ± 0.063 | 0.889 ± 0.049
SARILRVEFEPFPLTERARLRLEVEDEDNDFPYEVDIELEVLPDPSEVRLRLVVRRPDGSRRELELRLFSAG [r14_10_TrMRF] | 4.23 ± 0.091 | 4.97 ± 0.091 | 3.56 ± 0.086
FKFKITELSFNPEWGYIHFNVKVEGPDGQPQTFPIMIRIRIPPPPPPPPPPMRADPDGKVRNPDDGKEHDAS [r1_270_TrROS] | 4.26 ± 0.63 | 4.9 ± 0.27 | 3.3 ± 0.1
SAGGSAGGKKVYPIPGATPNQFRELLDENKGTLKIYMPNGKQEEFPIKPGMEPIPGGPAWIERKSAGGSAGG [r6_304_TrROS] | -0.871 ± 0.36 | -1.29 ± 0.85 | -0.834 ± 0.41
SAGGKPKEIVIEVELEVVEVNGEKYLVLKAKIIDKETNEVYEVTAVFNLKTGKLVGIEVKKLTVEELKSAGG [r13_772_TrROS_Hall] | 4.66 ± 0.37 | 4.9 ± 0.23 | 3.16 ± 0.25
SAGGSAGGKPKVVELELTTEDGSKVRVVFTEDSVYIYNEETGLLVKYNLKTGKFELKEVYPLEESAGGSAGG [r6_462_TrROS_Hall] | 2.92 ± 0.28 | 3.24 ± 0.055 | 2.15 ± 0.15
